Patent EP4089107A1 (Cytoki Pharma ApS, dated 2022)

Legend:
[1] = molecular target: T1, human IL-22 receptor (human IL-22Ra and human IL-10Rb) expressed on BHK reporter cells (human, UniProt Q8N6P7 16-574; Q08334 20-325); test: cell-based or functional assay
T1 sequence (looked up) 1: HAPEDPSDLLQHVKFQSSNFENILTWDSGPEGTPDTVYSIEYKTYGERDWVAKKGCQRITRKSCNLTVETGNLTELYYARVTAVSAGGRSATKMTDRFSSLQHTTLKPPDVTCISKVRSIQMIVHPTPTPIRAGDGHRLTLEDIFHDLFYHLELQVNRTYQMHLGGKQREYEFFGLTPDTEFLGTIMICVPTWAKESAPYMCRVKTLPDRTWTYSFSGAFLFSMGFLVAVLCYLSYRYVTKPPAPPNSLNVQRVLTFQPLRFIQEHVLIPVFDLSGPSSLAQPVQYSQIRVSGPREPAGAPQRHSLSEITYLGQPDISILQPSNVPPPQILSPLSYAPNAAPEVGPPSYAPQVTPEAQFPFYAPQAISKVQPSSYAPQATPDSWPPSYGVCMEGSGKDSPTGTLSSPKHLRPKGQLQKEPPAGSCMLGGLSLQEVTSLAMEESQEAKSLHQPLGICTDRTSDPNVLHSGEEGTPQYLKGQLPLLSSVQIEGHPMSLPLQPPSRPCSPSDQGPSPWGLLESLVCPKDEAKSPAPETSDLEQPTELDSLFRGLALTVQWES
T1 sequence (looked up) 2: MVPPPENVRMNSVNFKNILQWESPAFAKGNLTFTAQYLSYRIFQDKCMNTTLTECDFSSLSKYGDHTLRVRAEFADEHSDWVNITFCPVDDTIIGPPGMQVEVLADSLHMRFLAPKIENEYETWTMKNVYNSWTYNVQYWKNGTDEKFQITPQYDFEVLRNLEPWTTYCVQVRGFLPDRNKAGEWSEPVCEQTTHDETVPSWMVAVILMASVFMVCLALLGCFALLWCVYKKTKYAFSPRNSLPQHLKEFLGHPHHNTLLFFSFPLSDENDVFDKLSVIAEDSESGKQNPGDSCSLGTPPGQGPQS

[2] = molecular target: T1, human IL-22 receptor (human IL-22Ra and …); test: cell-based or functional assay; remark: listed apart in the source

EC50 in BHK cell reporter gene assay (luciferase with STAT3-induced promoter) [1] [nM]	fold reduction in potency compared to hIL-22, BHK cell assay with albumin present [2] [fold]	Binder
0.07	–	native mature human IL-22 (ligand) APISSHCRLDKSNFQQPYITNRTFMLAKEASLADNNTDVRLIGEKLFHGVSMSERCYLMKQVLNFTLEEVLFPQSDRFQPYMQEVVPFLARLSNRLSTCHIEGDDLHIQRNVQKLKDTVKKLGESGEIKAIGELDLLFMSLRNACI
0.36	5	Derivative 2 (ligand, C18 diacid covalently attached via linker γGlu-OEG-OEG-C2DA-Ac at residue 95C) APISSHCRLDKSNFQQPYITNRTFMLAKEASLADQNTDVRLIGEKLFHGVSMSERCYLMKQVLQFTLEEVLFPQSDRFQPYMQEVVPFLARLSNCLSTCHIEGDDLHIQRNVQKLKDTVKKLGESGEIKAIGELDLLFMSLRNACI
0.23	3	Derivative 1 (ligand, C18 diacid covalently attached via linker γGlu-OEG-OEG-C2DA-Ac at residue 106C) APISSHCRLDKSNFQQPYITNRTFMLAKEASLADQNTDVRLIGEKLFHGVSMSERCYLMKQVLQFTLEEVLFPQSDRFQPYMQEVVPFLARLSNRLSTCHIEGDDCHIQRNVQKLKDTVKKLGESGEIKAIGELDLLFMSLRNACI
